# Measured values taken from patent US10266566 (NORTH CAROLINA STATE UNIVERSITY, dated 2019).
# *1 amine or outer side, *2 acyl side, *3 side chain or, on linkers, in order; H or OH if unused. Where no end group is shown, it is not given here. [ ]: non-standard residue; d: D form. Tyr(Me) = O-methyl-tyrosine, COc1ccc(C[C@H](N[*:1])C(=O)[*:2])cc1; Trp(1-Me) = Cn1cc(C[C@H](N)C(=O)O)c2ccccc21; Phe(4-Me) = Cc1ccc(C[C@H](N)C(=O)O)cc1; Lys(Me2) = CN(C)CCCC[C@H](N)C(=O)O; Cit = NC(=O)NCCC[C@H](N)C(=O)O
# B1: HFRRHL (peptide)
# peptide: HFRRHL-{Toyopearl AF‑Amino‑650M resin}
# notes: Synthetic hexapeptide on Toyopearl resin; also called HFRRHL-Toyopearl
# B2: HWRGWV (peptide)
# peptide: HWRGWV-{Toyopearl AF‑Amino‑650M resin}
# modifications: not fully specified
# notes: Synthetic hexapeptide made directly on Toyopearl AF-Amino-650M resin after a first Fmoc-Ala-OH coupling, about 0.12 meq/g; also called HWRGWV-Toyopearl; original peptide ligand
# B3: HFMetCitCitHL (peptide)
# peptide: H[Phe(4-Me)][Cit][Cit]HL-{Toyopearl AF‑Amino‑650M resin}
# notes: Variant of HFRRHL on Toyopearl resin; also called HFMetCitCitHL-Toyopearl
# B4: HYMetFMetKMet2FMetD (peptide)
# peptide: H[Tyr(Me)][Phe(4-Me)][Lys(Me2)][Phe(4-Me)]D-{Toyopearl AF‑Amino‑650M resin}
# notes: Variant of HYFKFD on Toyopearl resin, used as a negative control; also called HYMetFMetK(Met)2FMetD-Toyopearl
# B5: HYFKFD (peptide)
# peptide: HYFKFD-{Toyopearl AF‑Amino‑650M resin}
# notes: Synthetic hexapeptide on Toyopearl resin; also called HYFKFD-Toyopearl
# B6: HWMetCitGWMetV (peptide)
# peptide: H[Trp(1-Me)][Cit]G[Trp(1-Me)]V-{Toyopearl AF‑Amino‑650M resin}
# notes: Variant of HWRGWV on Toyopearl resin; also called HWMetCitGWMetV-Toyopearl
# B7: Ac-HWMetCitGWMetV (peptide)
# peptide: Ac-H[Trp(1-Me)][Cit]G[Trp(1-Me)]V-{Toyopearl AF‑Amino‑650M resin}
# notes: Acetylated HWMetCitGWMetV on Toyopearl resin; also called Ac-HWMetCitGWMetV-Toyopearl
# Molecular target: T1, albumin (human, UniProt P02768 25-609)
# T1 construct: Impurity in the Cohn fraction II+III feed, seen on SDS-PAGE of the eluted fractions
# T1 sequence (P02768 25-609 limits assumed): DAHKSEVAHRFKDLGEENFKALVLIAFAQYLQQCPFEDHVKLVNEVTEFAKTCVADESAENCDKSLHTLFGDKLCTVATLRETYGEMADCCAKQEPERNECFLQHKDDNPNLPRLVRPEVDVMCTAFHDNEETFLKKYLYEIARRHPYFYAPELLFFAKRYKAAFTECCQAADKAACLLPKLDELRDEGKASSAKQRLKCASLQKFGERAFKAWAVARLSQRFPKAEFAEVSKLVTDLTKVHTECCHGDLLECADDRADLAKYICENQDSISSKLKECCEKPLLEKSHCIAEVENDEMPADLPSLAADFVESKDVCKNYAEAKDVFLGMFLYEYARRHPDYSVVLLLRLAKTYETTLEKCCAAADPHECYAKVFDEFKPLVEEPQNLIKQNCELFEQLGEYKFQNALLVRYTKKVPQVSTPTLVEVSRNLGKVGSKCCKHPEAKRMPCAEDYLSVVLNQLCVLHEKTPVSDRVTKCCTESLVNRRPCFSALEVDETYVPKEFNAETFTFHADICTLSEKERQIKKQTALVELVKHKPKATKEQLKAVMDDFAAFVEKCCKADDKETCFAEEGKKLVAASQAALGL
# Assay: SDS-PAGE of fractions eluted from peptide resin loaded with Cohn fraction II+III
# Procedure: Each peptide resin was packed and swollen as described before. […] Toyopearl AF-rProtein A-650F resin was used as a positive control. As per manufacturer's instructions, the chromatographic protocol comprised binding with PBS, pH 7.4 (at a flow rate of 0.05 mL/min) and elution with 0.1M Glycine buffer pH 2.5 (at a flow rate of 0.4 mL/min). […] Fractions were collected and used for analysis of IgG purity and yield as described below.
# The original peptide ligands were employed as positive controls. The crude stock of Cohn II+III paste was diluted in PBS to prepare the feed sample and solid particles were removed by filtration prior to injection into the column. […] Fractions were collected and analyzed by Protein G chromatography and SDS-PAGE (FIG. 3) to determine IgG yield and purity respectively.
row,Binder,binding result
1,B1,binds
2,B2,binds
3,B3,binds
4,B4,binds
5,B5,binds
6,B6,binds

# Molecular target: T1, albumin
# Assay: SDS-PAGE of fractions from peptide resin loaded with Cohn fraction II+III at different NaCl
row,Binder,binding result
1,B7,binds

# Molecular target: T2, Human polyclonal immunoglobulin G (IgG) (human)
# T2 construct: also called hIgG; IVIG
# Assay: affinity chromatography, peptide resin, 10 mg/mL hIgG in PBS; 1st run, before any enzyme
# Procedure: (§1) One hundred microliters of feed sample was loaded onto the column at a flow rate of 0.05 mL/min (87 cm/h).
# (§2) Each adsorbent was subjected to five consecutive chromatographic runs. First, a solution of pure human polyclonal IgG at 10 mg/mL in PBS was injected to determine IgG yield for each adsorbent prior to contact with any enzyme. […] The resin was then contacted with a solution of α-chymotrypsin in Tris buffer pH 8.5 for 10 minutes. The amount of enzyme loaded onto the column was in a mass ratio of 1:100 peptide:enzyme, as done by Verdoliva et al. [35]. After rinsing the resin, a second injection of IgG was then performed to estimate the loss of binding capacity due to the digestion of the peptide ligand by α-chymotrypsin. The resin was then contacted with the second enzyme solution, i.e., trypsin in Tris buffer pH 8.5, at the same peptide:enzyme ratio. A third IgG injection was finally performed to estimate the residual binding capacity of each resin after the second enzyme treatment.
row,Binder,IgG yield
1,B1,93%
2,B2,95%
3,B3,90%
4,B4,52%
5,B5,78%
6,B6,90%

# Molecular target: T2, Human polyclonal immunoglobulin G (IgG)
# Assay: affinity chromatography of Cohn fraction II+III on peptide resin; binding buffer PBS + 0M NaCl
row,Binder,IgG yield
1,B2,90%
2,B7,91%
3,B6,89%

# Molecular target: T2, Human polyclonal immunoglobulin G (IgG)
# Assay: affinity chromatography of Cohn fraction II+III on peptide resin; binding buffer PBS + 0.13M NaCl
row,Binder,IgG yield
1,B2,85%
2,B7,93%
3,B6,90%

# Molecular target: T2, Human polyclonal immunoglobulin G (IgG)
# Assay: affinity chromatography of Cohn fraction II+III on peptide resin; binding buffer PBS + 0.25M NaCl
# Procedure: (§3) Toyopearl AF-rProtein A-650F resin was used as a positive control. As per manufacturer's instructions, the chromatographic protocol comprised binding with PBS, pH 7.4 (at a flow rate of 0.05 mL/min) and elution with 0.1M Glycine buffer pH 2.5 (at a flow rate of 0.4 mL/min). […] Fractions were collected and used for analysis of IgG purity and yield as described below.
row,Binder,IgG yield
1,B2,85%
2,B7,94%
3,B6,91%

# Molecular target: T2, Human polyclonal immunoglobulin G (IgG)
# Assay: affinity chromatography, peptide resin, 10 mg/mL hIgG in PBS; 3rd run, after alpha-chymotrypsin and then trypsin
# Procedure: as §1, §2
row,Binder,IgG yield
1,B1,54%
2,B2,36%
3,B3,91%
4,B4,53%
5,B5,71%
6,B6,90%

# Molecular target: T2, Human polyclonal immunoglobulin G (IgG)
# Assay: affinity chromatography, peptide resin, 10 mg/mL hIgG in PBS; 2nd run, after resin contacted with alpha-chymotrypsin
# Procedure: as §1, §2
row,Binder,IgG yield
1,B1,78%
2,B2,72%
3,B3,92%
4,B4,49%
5,B5,76%
6,B6,91%

# Molecular target: T2, Human polyclonal immunoglobulin G (IgG)
# Assay: affinity chromatography, peptide on Toyopearl resin, pure human IgG load; yield = IgG eluted/IgG loaded, by Protein G chromatography
# Procedure: Each adsorbent thus obtained was packed into a chromatographic column (0.1 mL) and tested for IgG binding. Flowthrough and elution fractions were collected and analyzed by Protein G chromatography to determine IgG yield (Table 2).
row,Binder,IgG yield
1,B1,93%
2,B2,95%
3,B3,90%
4,B4,42%
5,B5,78%
6,B6,90%

# Molecular target: T2, Human polyclonal immunoglobulin G (IgG)
# Assay: affinity chromatography of Cohn fraction II+III of human plasma on peptide resin; binding PBS + 0.25M NaCl, elution acetate pH 5.0; yield by Protein G chromatography
# Procedure: as §3
# The original peptide ligands were employed as positive controls. The crude stock of Cohn II+III paste was diluted in PBS to prepare the feed sample and solid particles were removed by filtration prior to injection into the column.
row,Binder,IgG yield
1,B1,91%
2,B2,85%
3,B3,89%
4,B4,48%
5,B5,54%
6,B6,91%
